Measurements from publication PMC11800616 (Mobile DNA, 2025).
Read-outs that look alike come from different tables or passages of the source.

Experiments:
[1] = target: T1, LINE-1 ORF2p (translation product of L1 ORF2), endogenous (human (endogenous in N2102Ep and …, UniProt O00370 1-1275)); test: affinity purification with mass spectrometry
[2] = target: T1, LINE-1 ORF2p (translation product of L1 …); test: affinity purification with mass spectrometry; remark: listed apart in the source

T1 sequence (O00370 whole entry): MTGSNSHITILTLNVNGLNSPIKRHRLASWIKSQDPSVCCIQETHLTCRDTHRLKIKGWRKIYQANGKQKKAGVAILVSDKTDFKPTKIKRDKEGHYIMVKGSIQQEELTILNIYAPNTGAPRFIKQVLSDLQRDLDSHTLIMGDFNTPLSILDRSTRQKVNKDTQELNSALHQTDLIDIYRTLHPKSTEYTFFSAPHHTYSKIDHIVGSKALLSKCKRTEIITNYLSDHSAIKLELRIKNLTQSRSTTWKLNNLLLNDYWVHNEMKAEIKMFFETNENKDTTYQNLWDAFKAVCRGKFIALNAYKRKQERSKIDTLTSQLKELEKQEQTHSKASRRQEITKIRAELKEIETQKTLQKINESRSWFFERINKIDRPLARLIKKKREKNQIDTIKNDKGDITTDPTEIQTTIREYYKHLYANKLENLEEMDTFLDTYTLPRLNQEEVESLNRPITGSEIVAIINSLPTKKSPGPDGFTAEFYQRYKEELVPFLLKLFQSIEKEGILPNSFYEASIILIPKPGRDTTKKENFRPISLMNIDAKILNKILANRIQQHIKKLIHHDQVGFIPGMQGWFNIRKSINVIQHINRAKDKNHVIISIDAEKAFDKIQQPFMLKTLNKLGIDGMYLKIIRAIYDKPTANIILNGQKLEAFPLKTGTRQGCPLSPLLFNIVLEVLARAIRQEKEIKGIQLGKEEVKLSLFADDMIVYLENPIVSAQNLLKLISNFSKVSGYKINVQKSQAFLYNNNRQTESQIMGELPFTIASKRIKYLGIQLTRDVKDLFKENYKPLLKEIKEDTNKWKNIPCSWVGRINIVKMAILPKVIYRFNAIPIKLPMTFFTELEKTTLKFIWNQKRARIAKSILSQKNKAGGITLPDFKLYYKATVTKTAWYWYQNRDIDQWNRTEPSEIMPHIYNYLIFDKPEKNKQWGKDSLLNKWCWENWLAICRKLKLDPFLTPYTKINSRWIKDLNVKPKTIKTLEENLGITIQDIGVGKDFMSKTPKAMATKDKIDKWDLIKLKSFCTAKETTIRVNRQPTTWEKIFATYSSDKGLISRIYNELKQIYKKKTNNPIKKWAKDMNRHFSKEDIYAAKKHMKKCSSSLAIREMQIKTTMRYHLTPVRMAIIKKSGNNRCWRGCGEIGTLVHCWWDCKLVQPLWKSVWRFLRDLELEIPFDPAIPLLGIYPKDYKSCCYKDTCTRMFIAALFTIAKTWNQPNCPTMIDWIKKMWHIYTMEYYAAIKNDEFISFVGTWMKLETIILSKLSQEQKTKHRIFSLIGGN

B1: LINE-1 ORF1p (translation product of L1 ORF1), endogenous (natural protein)
chain: MGKKQNRKTGNSKTQSASPPPKERSSSPATEQSWMENDFDELREEGFRRSNYSELREDIQTKGKEVENFEKNLEECITRITNTEKCLKELMELKTKARELREECRSLRSRCDQLEERVSAMEDEMNEMKREGKFREKRIKRNEQSLQEIWDYVKRPNLRLIGVPESDVENGTKLENTLQDIIQENFPNLARQANVQIQEIQRTPQRYSSRRATPRHIIVRFTKVEMKEKMLRAAREKGRVTLKGKPIRLTADLSAETLQARREWGPIFNILKEKNFQPRISYPAKLSFISEGEIKYFIDKQMLRDFVTTRPALKELLKEALNMERNNRYQPLQNHAKM
ORF1p:ORF2p molar ratio in the affinity enriched fraction [1]: ~184 molar ratio (ORF1p per ORF2p) | ORF1p:ORF2p molar ratio in the affinity enriched fraction [2]: ~279 molar ratio (ORF1p per ORF2p)
